Laboratory results as given in PMC2173062 (The Journal of Cell Biology, 2002).

Experiments:
[1] = biological target: bovine Hsc70 R447H, recombinant mutant (bovine, UniProt P19120 1-650, R447H); assay: pull-down
[2] = biological target: bovine Hsc70, recombinant wild type (bovine, UniProt P19120 1-650); assay: pull-down
Sequence of bovine Hsc70, recombinant wild type (P19120 whole entry): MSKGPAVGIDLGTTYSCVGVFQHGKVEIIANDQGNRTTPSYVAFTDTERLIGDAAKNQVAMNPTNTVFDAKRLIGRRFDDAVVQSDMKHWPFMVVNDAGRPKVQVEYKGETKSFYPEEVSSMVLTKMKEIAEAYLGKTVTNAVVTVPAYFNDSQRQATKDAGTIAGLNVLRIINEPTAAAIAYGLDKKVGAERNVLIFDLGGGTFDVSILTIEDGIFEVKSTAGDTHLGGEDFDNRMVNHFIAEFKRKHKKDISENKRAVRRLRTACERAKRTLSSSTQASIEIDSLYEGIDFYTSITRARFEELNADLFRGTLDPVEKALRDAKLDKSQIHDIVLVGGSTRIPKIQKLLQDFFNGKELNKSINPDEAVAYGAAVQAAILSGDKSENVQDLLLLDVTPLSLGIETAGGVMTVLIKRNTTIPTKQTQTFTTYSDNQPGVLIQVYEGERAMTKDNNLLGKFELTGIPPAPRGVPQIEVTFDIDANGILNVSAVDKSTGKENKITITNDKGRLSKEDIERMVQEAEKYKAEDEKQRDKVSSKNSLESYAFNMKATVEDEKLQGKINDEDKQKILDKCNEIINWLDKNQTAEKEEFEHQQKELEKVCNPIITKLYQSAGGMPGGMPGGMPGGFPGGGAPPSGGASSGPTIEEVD

Sequence of bovine Hsc70 R447H, recombinant mutant (P19120 whole entry R447H): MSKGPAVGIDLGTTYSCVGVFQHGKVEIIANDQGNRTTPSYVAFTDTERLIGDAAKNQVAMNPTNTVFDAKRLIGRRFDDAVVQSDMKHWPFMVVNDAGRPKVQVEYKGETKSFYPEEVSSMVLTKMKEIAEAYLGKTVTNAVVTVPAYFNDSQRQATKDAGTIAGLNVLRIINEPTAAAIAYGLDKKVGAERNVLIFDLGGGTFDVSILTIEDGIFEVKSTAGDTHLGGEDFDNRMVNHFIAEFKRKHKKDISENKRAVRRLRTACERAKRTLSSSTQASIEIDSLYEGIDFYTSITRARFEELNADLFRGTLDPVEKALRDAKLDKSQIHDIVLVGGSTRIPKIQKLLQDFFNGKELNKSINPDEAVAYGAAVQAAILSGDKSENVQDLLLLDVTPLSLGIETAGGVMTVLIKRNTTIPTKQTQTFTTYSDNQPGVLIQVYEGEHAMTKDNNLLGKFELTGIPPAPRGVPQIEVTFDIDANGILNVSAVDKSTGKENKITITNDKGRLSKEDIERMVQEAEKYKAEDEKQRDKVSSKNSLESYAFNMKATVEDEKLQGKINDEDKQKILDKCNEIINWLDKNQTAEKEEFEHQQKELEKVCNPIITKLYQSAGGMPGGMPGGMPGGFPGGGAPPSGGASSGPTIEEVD

binding result [1]: binds
binding result [2]: binds
B1: GST-J^aux, J-domain of bovine auxilin (residues 813-910) fused to GST (domain or fragment, UniProt Q27974 813-910, looked up)
chain: DPEKLKILEWIEGKERNIRALLSTMHTVLWAGETKWKPVGMADLVTPEQVKKVYRKAVLVVHPDKATGQPYEQYAKMIFMELNDAWSEFENQGQKPLY
